The Kd is the concentration at which binding is half-saturated. A higher Kd goes with weaker binding.

This data set concerns the target EGFRvIII, biotinylated (human, UniProt P00533 25-30+298-645, V30G;internal_change). Kind of data set: BLI.

Consider GGACGGAUUUAAUCGCCGUAGAAAAGCAUGUCAAAGCCGGAACCGUCC (XNA, 2'-fluoro at all C and U; 2'-OH purines; 5' alkyne) [ME07 (alkyne-modified MinE07)], for which the Kd was determined as 271 nM. This counts as sub-micromolar.

(Values after paper PMC6358511.)
